Positions count from the first letter of the chain named.
B1: 3E1 scFv-Fc (Fc fusion)
chain: QVQLQQPGAEVVKPGASVKMSCKASGYTFTDYYIHWVKQTPGQGLEWIGAIYPDNGDTSYNQKFKVKATLTADKSSSTAYMQLSSLTSEDSAVYYCARAFTYWGQGTLVTVSAGGGGSGGGGSGGGGSDILITQSPASLSASVGETVTITCGASENIYGALNWYQRKQGKSPQLLIYGATNLADGMSSRFSGSGSGRQYSLKISSLHPDDVATYYCQNVLSTPYTFGGGTKLEIKESKYGPPCPPCPAPEAAGGPSVFLFPPKPKDTLMISRTPEVTCVVVDVSQEDPEVQFNWYVDGVEVHNAKTKPREEQFNSTYRVVSVLTVLHQDWLNGKEYKCKVSNKGLPSSIEKTISKAKGQPREPQVYTLPPSQEEMTKNQVSLTCLVKGFYPSDIAVEWESNGQPENNYKTTPPVLDSDGSFFLYSKLTVDKSRWQEGNVFSCSVMHEALHNHYTQKSLSLSLG
B2: 3E2 scFv-Fc (Fc fusion)
chain: EIQLQQSGAELVKPGASVKMSCKASGYTFSFYNMHWVKRTPGQGLEWIGLIYPDNGDTSYNQKFKGKATLTADTSSSTAYMQLSSLTSEDSAVYYCARGGLDYWGQGTSLTVSSGGGGSGGGGSGGGGSNIVMTQSQKFMSTSVGDRVSVTCKASQNVGTNVAWYQQKPGQSPKALIYSASYRYTGVPDRFTGSGSGTDFTFTISSVQAEDLAVYYCQQHYSTPYTFGGGTKLEIKESKYGPPCPPCPAPEAAGGPSVFLFPPKPKDTLMISRTPEVTCVVVDVSQEDPEVQFNWYVDGVEVHNAKTKPREEQFNSTYRVVSVLTVLHQDWLNGKEYKCKVSNKGLPSSIEKTISKAKGQPREPQVYTLPPSQEEMTKNQVSLTCLVKGFYPSDIAVEWESNGQPENNYKTTPPVLDSDGSFFLYSKLTVDKSRWQEGNVFSCSVMHEALHNHYTQKSLSLSLG
B3: 1D7 scFv-Fc (Fc fusion)
chain: QIQLQQSGAELVKPGASVKMSCKASGYTFRYYNMHWVKRTPGQGLEWIGLIYPDNGDTSYNQKFKGKATLTADTSSSTAYMQLSSLTSEDSAVYYCARGGLDYWGQGTSLTVSSGGGGSGGGGSGGGGSDIQMTQSPSSMSASLGDRITITCQATQDIVKNLNWYQQKPGKPPSFLIYYATELAEGVPSRFSGSGSGSDYSLTISNLESEDFADYYCLQFYEFPLTFGAGTKLELKESKYGPPCPPCPAPEAAGGPSVFLFPPKPKDTLMISRTPEVTCVVVDVSQEDPEVQFNWYVDGVEVHNAKTKPREEQFNSTYRVVSVLTVLHQDWLNGKEYKCKVSNKGLPSSIEKTISKAKGQPREPQVYTLPPSQEEMTKNQVSLTCLVKGFYPSDIAVEWESNGQPENNYKTTPPVLDSDGSFFLYSKLTVDKSRWQEGNVFSCSVMHEALHNHYTQKSLSLSLG
B4: 3F11 scFv-Fc (Fc fusion)
chain: QVQLQQSGAELVKPGASVKMSCKASGYTFAPYNIHWVRQTPGQGLEWIGLIYPDNGDTSYNQKFKAKATLTADKSSSTAYMQLSSLTSEDSAVYYCARGGFDYWGQGTSLTVSSGGGGSGGGGSGGGGSDIVMTQSQKFMSTSVGDRVSVTCKASQNVGTNVAWYQQKPGQSPKALIYSASYRYSGVPDRFTGSGSGTDFTLTISNVQSEDLAEYFCQQHYSTPFTFGSGTKLEIKESKYGPPCPPCPAPEAAGGPSVFLFPPKPKDTLMISRTPEVTCVVVDVSQEDPEVQFNWYVDGVEVHNAKTKPREEQFNSTYRVVSVLTVLHQDWLNGKEYKCKVSNKGLPSSIEKTISKAKGQPREPQVYTLPPSQEEMTKNQVSLTCLVKGFYPSDIAVEWESNGQPENNYKTTPPVLDSDGSFFLYSKLTVDKSRWQEGNVFSCSVMHEALHNHYTQKSLSLSLG
B5: 1B8 scFv-Fc (Fc fusion)
chain: QIQLQQSGAELVKPGASVKMSCKASGYTFASYNLHWVKQTPGQGLEWIGLIYPENGDTSYNQKFKGKATLTADTSSTTAYIQLSSLTSEDSAVYFCARGGFDYWGQGTSLTVSSGGGGSGGGGSGGGGSDIKMTQSPASLSASVGETVTITCGASENIYGALNWYQRKQGKSPQLLIYGATNLADGMSSRFSGSGSGRQYSLKISSLHPDDVATYYCQNVLSTPYTFGGGTKLEIKESKYGPPCPPCPAPEAAGGPSVFLFPPKPKDTLMISRTPEVTCVVVDVSQEDPEVQFNWYVDGVEVHNAKTKPREEQFNSTYRVVSVLTVLHQDWLNGKEYKCKVSNKGLPSSIEKTISKAKGQPREPQVYTLPPSQEEMTKNQVSLTCLVKGFYPSDIAVEWESNGQPENNYKTTPPVLDSDGSFFLYSKLTVDKSRWQEGNVFSCSVMHEALHNHYTQKSLSLSLG
B6: 3H9 scFv-Fc (Fc fusion)
chain: EIQLQQSGAELVKPGASVKMSCKASGYTFSFYNMHWVKRTPGQGLEWIGLIYPDNGDTSYNQKFKGKATLTADTSSSTAYMQLSSLTSEDSAVYYCARGGLDYWGQGTTLTVSSGGGGSGGGGSGGGGSDIVLTQSPASLSVSVGETVTITCRASENIYSNLAWYQQKQGKSPQLLVYAATNLADGVPSRFSGSGSGTQYSLKINSLQSEDFGSYYCQHFWGTPYTFGGGTKLELKESKYGPPCPPCPAPEAAGGPSVFLFPPKPKDTLMISRTPEVTCVVVDVSQEDPEVQFNWYVDGVEVHNAKTKPREEQFNSTYRVVSVLTVLHQDWLNGKEYKCKVSNKGLPSSIEKTISKAKGQPREPQVYTLPPSQEEMTKNQVSLTCLVKGFYPSDIAVEWESNGQPENNYKTTPPVLDSDGSFFLYSKLTVDKSRWQEGNVFSCSVMHEALHNHYTQKSLSLSLG
B7: 3D6 scFv-Fc (Fc fusion)
chain: QVQLQQSGAELVKPGASVKMSCKASGYTFRYYNMHWVKRTPGQGLEWIGLIYPDNGDTSYNQKFKGKATLTADTSSSTAYMQLSSLTSEDSAVYYCARGGLDYWGQGTSLTVSSGGGGSGGGGSGGGGSDIQMTQSPASLSVSVGETVTITCRASENIYSNLAWYQQKQGKSPQLLVYNAKTLADGVPSRFSGSGSGTQYSLKINSLQPEDFGSYYCQHFWSTPFTFGSGTKLELKESKYGPPCPPCPAPEAAGGPSVFLFPPKPKDTLMISRTPEVTCVVVDVSQEDPEVQFNWYVDGVEVHNAKTKPREEQFNSTYRVVSVLTVLHQDWLNGKEYKCKVSNKGLPSSIEKTISKAKGQPREPQVYTLPPSQEEMTKNQVSLTCLVKGFYPSDIAVEWESNGQPENNYKTTPPVLDSDGSFFLYSKLTVDKSRWQEGNVFSCSVMHEALHNHYTQKSLSLSLG
B8: 3C9 scFv-Fc (Fc fusion)
chain: EIQLQQSGAELVKPGASVKMSCKASGYIFRYYNMHWVKRTPGQGLEWIGLIYPDNGDTSYNQKFKGKATLTADTSSSTAYMQLSSLTSEDSAVYYCARGGLDYWGQGTTLTVSSGGGGSGGGGSGGGGSDIQMIQSPASLSASVGETVTITCGASENIYGALNWYQRKQGKSPQLLIYGATNLADGMSSRFSGSGSGRQYSLKISSLHPDDVATYYCQNVLSTPYTFGGGTKLEIKESKYGPPCPPCPAPEAAGGPSVFLFPPKPKDTLMISRTPEVTCVVVDVSQEDPEVQFNWYVDGVEVHNAKTKPREEQFNSTYRVVSVLTVLHQDWLNGKEYKCKVSNKGLPSSIEKTISKAKGQPREPQVYTLPPSQEEMTKNQVSLTCLVKGFYPSDIAVEWESNGQPENNYKTTPPVLDSDGSFFLYSKLTVDKSRWQEGNVFSCSVMHEALHNHYTQKSLSLSLG
B9: 3B7 scFv-Fc (Fc fusion)
chain: B8 chain with I2V, I28T, L101F, I134T, I235L
B10: 3B4 scFv-Fc (Fc fusion)
chain: B8 chain with I2V, E10D, I28T, R30S, K38R, L140M, I235M
B11: 3H6 scFv-Fc (Fc fusion)
chain: QVQLQQSGAELVKPGASVKMSCKASGYTFSFYNIHWVRQTPGQGLEWIGLIYPDNGDTSYNQKFKAKATLTADKSSSTAYMQLSSLTSEDSAVYYCARGGFDYWGQGTTLTVSSGGGGSGGGGSGGGGSDIQMTQSPASLSASVGETVTITCRASENIYSYLAWYQQKQGKSPQLLVYNAKTLAEGVPSRFSGSGSGTQFSLKINSLQPEDFGSYYCQHHYGTPYTFGGGTKLEMKESKYGPPCPPCPAPEAAGGPSVFLFPPKPKDTLMISRTPEVTCVVVDVSQEDPEVQFNWYVDGVEVHNAKTKPREEQFNSTYRVVSVLTVLHQDWLNGKEYKCKVSNKGLPSSIEKTISKAKGQPREPQVYTLPPSQEEMTKNQVSLTCLVKGFYPSDIAVEWESNGQPENNYKTTPPVLDSDGSFFLYSKLTVDKSRWQEGNVFSCSVMHEALHNHYTQKSLSLSLG

Biological target: recombinant mouse FGFR2b (mouse) (UniProt P21803)
Sequence (P21803 22-377): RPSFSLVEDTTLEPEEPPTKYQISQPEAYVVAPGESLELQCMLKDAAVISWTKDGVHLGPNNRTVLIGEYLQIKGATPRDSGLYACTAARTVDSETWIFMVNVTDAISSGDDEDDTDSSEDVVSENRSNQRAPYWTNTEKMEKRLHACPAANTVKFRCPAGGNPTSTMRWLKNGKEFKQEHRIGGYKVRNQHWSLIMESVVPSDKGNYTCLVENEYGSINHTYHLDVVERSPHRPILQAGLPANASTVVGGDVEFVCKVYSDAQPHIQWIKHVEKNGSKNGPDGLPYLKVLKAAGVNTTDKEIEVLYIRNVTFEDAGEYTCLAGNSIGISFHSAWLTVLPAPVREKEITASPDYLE
Assay: ELISA, antibody 1ug/mL

Going from B1 to B2, the OD (450 nm) value rises from 2.92 to 2.96.

First: B3
Second: B4
The OD (450 nm) value of the first is higher: 3.04 for the first, 2.92 for the second.

Going from B5 to B6, the OD (450 nm) value rises from 2.01 to 2.99.

Going from B7 to B8, the OD (450 nm) value falls from 2.59 to 2.57.

Going from B9 to B10, the OD (450 nm) value falls from 2.97 to 2.88.

Work on B11 yielded an OD (450 nm) value of 2.39.

Biological target: FGFR1 (acro) (UniProt P11362)
Sequence (P11362 22-376): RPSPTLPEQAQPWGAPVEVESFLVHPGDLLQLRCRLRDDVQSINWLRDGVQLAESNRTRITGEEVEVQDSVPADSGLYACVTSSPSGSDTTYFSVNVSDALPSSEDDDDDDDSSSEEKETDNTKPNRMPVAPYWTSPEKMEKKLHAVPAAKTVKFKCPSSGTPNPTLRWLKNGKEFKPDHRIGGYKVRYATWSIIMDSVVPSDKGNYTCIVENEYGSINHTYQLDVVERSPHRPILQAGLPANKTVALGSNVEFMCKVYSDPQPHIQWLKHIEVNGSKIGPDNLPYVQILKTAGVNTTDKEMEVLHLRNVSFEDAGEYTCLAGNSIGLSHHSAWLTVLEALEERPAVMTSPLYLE
Assay: ELISA, antibody 10 µg/mL

Going from B1 to B2, the OD (450 nm) value rises from 0.08 to 0.122.

Going from B3 to B4, the OD (450 nm) value rises from 0.074 to 0.1.

Going from B5 to B6, the OD (450 nm) value rises from 0.092 to 0.646.

First: B7
Second: B8
The OD (450 nm) value of the first is higher: 0.693 for the first, 0.113 for the second.

Going from B9 to B10, the OD (450 nm) value rises from 0.083 to 0.458.

B11 gave an OD (450 nm) value of 0.077.

Biological target: recombinant mouse FGFR2b (mouse) (UniProt P21803)
Assay: BLI, antibody on AHC2 sensor

Going from B1 to B2, the Kd rises from 21.8 nM to 36.5 nM (1.7-fold).

B3 and B4 are within 1.5-fold of each other in Kd: 27.6 nM for the first, 26 nM for the second.

First: B5
Second: B6
The Kd of the first is 3.1-fold higher: 74.9 nM for the first, 23.8 nM for the second.

Compared with B7, B8 is 2.2-fold lower in Kd: 21.7 nM for the first, 9.95 nM for the second. The second binds more tightly here.

B9 and B10 are within 1.5-fold of each other in Kd: 33.9 nM for the first, 27.3 nM for the second.

B11 gave a Kd of 43.7 nM.

B1 and B2 are within 1.5-fold of each other in koff: 0.00126 s⁻¹ for the first, 0.00152 s⁻¹ for the second.

B3 and B4 are within 1.5-fold of each other in koff: 0.00117 s⁻¹ for the first, 0.0015 s⁻¹ for the second.

First: B5
Second: B6
The koff of the first is 3.7-fold higher: 0.0048 s⁻¹ for the first, 0.00129 s⁻¹ for the second.

B7 and B8 are within 1.5-fold of each other in koff: 0.000593 s⁻¹ for the first, 0.000483 s⁻¹ for the second.

B9 and B10 are within 1.5-fold of each other in koff: 0.00172 s⁻¹ for the first, 0.0015 s⁻¹ for the second.

Work on B11 yielded a koff of 0.00156 s⁻¹.

B1 and B2 are within 1.5-fold of each other in kon: 57800 M⁻¹ s⁻¹ for the first, 41800 M⁻¹ s⁻¹ for the second.

B3 and B4 are within 1.5-fold of each other in kon: 42500 M⁻¹ s⁻¹ for the first, 57800 M⁻¹ s⁻¹ for the second.

B5 and B6 are within 1.5-fold of each other in kon: 64000 M⁻¹ s⁻¹ for the first, 54200 M⁻¹ s⁻¹ for the second.

Compared with B7, B8 is 1.8-fold higher in kon: 27400 M⁻¹ s⁻¹ for the first, 48500 M⁻¹ s⁻¹ for the second.

B9 and B10 are within 1.5-fold of each other in kon: 50700 M⁻¹ s⁻¹ for the first, 54900 M⁻¹ s⁻¹ for the second.

With B11 the kon was 35700 M⁻¹ s⁻¹.
